In the supplement of paper PMC7877785:
± gives the uncertainty stated by the source.

Test: self-splicing fitness, log relative to wild type (ln ratio); higher = more splicing; Tetrahymena group I intron in knt gene, E. coli kanamycin selection, DiMSum; sequences stand for … in CUCUCU…GGAGGGAAAAGUUAUCAGGCAUGCACCUGGUAGCUAGUCUUUAAACCAAUAGAUUGCAUCGGUUUAAAAGGCAAGACCGUCAAAUUGCGGGAAAGGGGUCAACAGCCGUUCAGUACCAAGUCUCAGGGGAAACUUUGAGAUGGCCUUGCAAAGGGUAUGGUAAUAAGCUGACGGACAUGGUCCUAACCACGCAGCCAAGUCCUAAGUCAACAGAUCUUCUGUUGAUAUGGAUGCAGUUCACAGACUAAAUGUCGGUCGGGGAAGAUGUAUUCUUCUCAUAAGAUAUAGUCGGACCUCUCCUUAAUGGGAGCUAGCGGAUGAAGUGAUGCAACACUGGAGCCGCUGGGAACUAAUUUGUAUGCGAAAGUAUAUUGAUUAGUUUUGGAGUACUCGUGGUCG
Outline: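 DiMSum derived fitness as the error-weighted combination of fold changes across replicates, kanamycin versus no kanamycin, normalised to wild type. E. coli BL21(DE3) held the library, which randomised all eight P1ex-region intron nucleotides within the knt kanamycin-resistance gene on pET-22b(+). Six replicate transformations grew overnight at 37°C or 30°C on LB agar with or without 25 μg/mL kanamycin, also containing 100 μg/mL carbenicillin, 50 μM IPTG and 0.2% rhamnose, and pooled colonies were amplicon-sequenced on an Illumina HiSeq 2500.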

Sequence	self-splicing fitness (ln) (37 °C)	self-splicing fitness (ln) (30 °C)
GCUAAGCAAUAUUACGCUGU	-3.18 ± 0.47	–
GCUAAGCAAUAUUACGGAAU	-0.857 ± 0.13	-1.68 ± 0.12
GCUAAGCAAUAUUACGGCAG	-2.85 ± 0.34	-3.28 ± 0.34
GCUAAGCAAUAUUACGGCGA	-0.247 ± 0.13	-0.936 ± 0.1
GCUAAGCAAUAUUACGGGUA	0.109 ± 0.09	-1.32 ± 0.097
GCUAAGCAAUAUUACGGUCA	-0.914 ± 0.15	-0.887 ± 0.13
GCUAAGCAAUAUUACGGUGC	-2.6 ± 0.39	-3.38 ± 0.22
GCUAAGCAAUAUUACGUAAG	0.0143 ± 0.15	-0.616 ± 0.11
GCUAAGCAAUAUUACGUACG	-1.13 ± 0.1	-1.67 ± 0.1
GCUAAGCAAUAUUACGUAGA	-0.223 ± 0.069	-0.845 ± 0.055
GCUAAGCAAUAUUACGUAGG	-0.249 ± 0.087	-1.34 ± 0.059
GCUAAGCAAUAUUACGUCAC	-2.35 ± 0.24	-3.38 ± 0.44
GCUAAGCAAUAUUACGUCCU	0.223 ± 0.17	-0.847 ± 0.14
GCUAAGCAAUAUUACGUGAA	-0.304 ± 0.074	-0.92 ± 0.059
GCUAAGCAAUAUUACGUGCU	-2.13 ± 0.25	-2.4 ± 0.14
GCUAAGCAAUAUUACGUGGC	-2.46 ± 0.41	-2.87 ± 0.23
GCUAAGCAAUAUUACGUUAG	-2.2 ± 0.28	-2.7 ± 0.28
GCUAAGCAAUAUUACGUUCG	-0.25 ± 0.17	-0.791 ± 0.097
GCUAAGCAAUAUUACGUUGA	-0.945 ± 0.14	-1.97 ± 0.14
GCUCAGCAAUAUUACGAACU	-0.48 ± 0.079	-0.913 ± 0.068
GCUCAGCAAUAUUACGAAGA	-0.863 ± 0.14	-0.583 ± 0.12
GCUCAGCAAUAUUACGAAUG	-0.636 ± 0.14	-1.59 ± 0.12
GCUCAGCAAUAUUACGAUCG	0.77 ± 0.13	-1.02 ± 0.1
GCUCAGCAAUAUUACGCCAC	-1.97 ± 0.47	–
GCUCAGCAAUAUUACGCCGC	–	-3.66 ± 0.44

Sequence	self-splicing fitness (ln) (37 °C)	self-splicing fitness (ln) (30 °C)
GCUCAGCAAUAUUACGCGGU	-2.22 ± 0.21	-3.01 ± 0.15
GCUCAGCAAUAUUACGCUAU	-0.658 ± 0.097	-1.61 ± 0.11
GCUCAGCAAUAUUACGCUCC	0.283 ± 0.26	-1.05 ± 0.15
GCUCAGCAAUAUUACGGACC	-0.186 ± 0.13	-0.753 ± 0.1
GCUCAGCAAUAUUACGGACG	-0.474 ± 0.11	-1.11 ± 0.079
GCUCAGCAAUAUUACGGCCG	-2.15 ± 0.27	-3.86 ± 0.27
GCUCAGCAAUAUUACGGCUC	0.408 ± 0.17	-0.525 ± 0.13
GCUCAGCAAUAUUACGGGUU	-1.09 ± 0.1	-1.29 ± 0.1
GCUCAGCAAUAUUACGGUGC	-1.29 ± 0.16	-1.82 ± 0.19
GCUCAGCAAUAUUACGUAAA	0.264 ± 0.086	-0.495 ± 0.064
GCUCAGCAAUAUUACGUAUC	0.011 ± 0.077	-0.849 ± 0.078
GCUCAGCAAUAUUACGUCAG	-3.23 ± 0.16	-4.87 ± 0.42
GCUCAGCAAUAUUACGUGAC	-1.03 ± 0.11	-1.88 ± 0.092
GCUCAGCAAUAUUACGUGCG	-0.22 ± 0.1	-1.32 ± 0.084
GCUCAGCAAUAUUACGUGGG	-1.85 ± 0.16	-3.65 ± 0.19
GCUCAGCAAUAUUACGUGUG	-0.824 ± 0.074	-1.26 ± 0.063
GCUCAGCAAUAUUACGUUCA	-0.686 ± 0.12	-0.466 ± 0.095
GCUGAGCAAUAUUACGAACA	-2.89 ± 0.38	-3.44 ± 0.36
GCUGAGCAAUAUUACGAAUA	-1.53 ± 0.39	-2.55 ± 0.29
GCUGAGCAAUAUUACGAAUC	-0.914 ± 0.17	-1.15 ± 0.12
GCUGAGCAAUAUUACGAAUU	-1.36 ± 0.19	-2.46 ± 0.22
GCUGAGCAAUAUUACGACAU	-1.08 ± 0.035	-2.265 ± 0.018
GCUGAGCAAUAUUACGACCU	-1.15 ± 0.33	-2.35 ± 0.26
GCUGAGCAAUAUUACGAUCG	-0.335 ± 0.25	–
GCUGAGCAAUAUUACGCAAA	-1.55 ± 0.29	-4.1 ± 0.39

Sequence	self-splicing fitness (ln) (37 °C)	self-splicing fitness (ln) (30 °C)
GCUGAGCAAUAUUACGCAAU	-1.9 ± 0.23	-2.2 ± 0.26
GCUGAGCAAUAUUACGCACA	-3.05 ± 0.4	-3.2 ± 0.39
GCUGAGCAAUAUUACGCACU	-0.125 ± 0.2	-1.78 ± 0.17
GCUGAGCAAUAUUACGCCGU	-0.103 ± 0.24	–
GCUGAGCAAUAUUACGCUUU	-2.33 ± 0.18	-2.42 ± 0.12
GCUGAGCAAUAUUACGGAUA	-1.8 ± 0.14	-2.7 ± 0.16
GCUGAGCAAUAUUACGGGCA	-2.69 ± 0.36	-1.76 ± 0.39
GCUGAGCAAUAUUACGGGUG	-1.29 ± 0.11	-1.72 ± 0.087
GCUGAGCAAUAUUACGGUCA	-2.2 ± 0.14	-2.69 ± 0.15
GCUGAGCAAUAUUACGGUCU	-1.65 ± 0.21	-2.03 ± 0.2
GCUGAGCAAUAUUACGUCAU	-0.856 ± 0.3	-3.26 ± 0.43
GCUGAGCAAUAUUACGUGCA	-0.958 ± 0.19	-1.81 ± 0.19
GCUGAGCAAUAUUACGUUAG	-1.74 ± 0.17	-2.86 ± 0.12
GCUUAGCAAUAUUACGAAAG	-0.485 ± 0.19	-1.52 ± 0.13
GCUUAGCAAUAUUACGAACC	-0.336 ± 0.27	-0.273 ± 0.23
GCUUAGCAAUAUUACGAACG	0.062 ± 0.14	-0.817 ± 0.099
GCUUAGCAAUAUUACGAAGG	-0.64 ± 0.21	-0.605 ± 0.12
GCUUAGCAAUAUUACGACGG	-0.935 ± 0.18	-1.89 ± 0.17
GCUUAGCAAUAUUACGAGCU	-1.89 ± 0.34	-2.37 ± 0.19
GCUUAGCAAUAUUACGAUAA	-1.69 ± 0.12	-2.12 ± 0.13
GCUUAGCAAUAUUACGAUCU	0.155 ± 0.13	-1.12 ± 0.12
GCUUAGCAAUAUUACGCAAA	-1.51 ± 0.2	-2.95 ± 0.27
GCUUAGCAAUAUUACGCAGG	-2.97 ± 0.27	-1.27 ± 0.19
GCUUAGCAAUAUUACGCAUG	-0.0774 ± 0.2	-2.06 ± 0.27
GCUUAGCAAUAUUACGCCUA	-1.05 ± 0.22	-2.32 ± 0.28

Sequence	self-splicing fitness (ln) (37 °C)	self-splicing fitness (ln) (30 °C)
GCUUAGCAAUAUUACGCGCU	-2.47 ± 0.21	-2.33 ± 0.16
GCUUAGCAAUAUUACGCGGG	-2.82 ± 0.32	-3.43 ± 0.22
GCUUAGCAAUAUUACGCUUA	-0.925 ± 0.14	-0.849 ± 0.11
GCUUAGCAAUAUUACGCUUC	-1.54 ± 0.29	-3.27 ± 0.47
GCUUAGCAAUAUUACGGAAC	-0.955 ± 0.14	-0.644 ± 0.15
GCUUAGCAAUAUUACGGAGA	-0.596 ± 0.12	-2.02 ± 0.14
GCUUAGCAAUAUUACGGAGC	-2.57 ± 0.41	-2.97 ± 0.19
GCUUAGCAAUAUUACGGAGG	-0.819 ± 0.094	-1.54 ± 0.1
GCUUAGCAAUAUUACGGCAA	-2.6 ± 0.17	-2.6 ± 0.17
GCUUAGCAAUAUUACGGCCG	-1.48 ± 0.36	-1.9 ± 0.34
GCUUAGCAAUAUUACGGUAG	–	-2.53 ± 0.4
GCUUAGCAAUAUUACGGUCU	-0.0218 ± 0.11	-0.834 ± 0.083
GCUUAGCAAUAUUACGUAAU	0.545 ± 0.083	-0.0411 ± 0.068
GCUUAGCAAUAUUACGUCUG	-1 ± 0.15	-2.33 ± 0.16
GCUUAGCAAUAUUACGUCUU	-0.549 ± 0.12	-1.1 ± 0.1
GCUUAGCAAUAUUACGUUAU	-0.881 ± 0.12	-1.38 ± 0.093
GCUUAGCAAUAUUACGUUGA	-1.15 ± 0.16	-2.65 ± 0.2
GCUUAGCAAUAUUACGUUGG	-0.814 ± 0.14	-1.59 ± 0.1
GGAAAGCAAUAUUACGAAGU	-1.97 ± 0.18	-2.79 ± 0.16
GGAAAGCAAUAUUACGACAA	-1 ± 0.14	-1.71 ± 0.12
GGAAAGCAAUAUUACGAGUU	-1.08 ± 0.12	-1.86 ± 0.1
GGAAAGCAAUAUUACGCCUC	-1.03 ± 0.19	-1.14 ± 0.16
